Measurements: patent US20250011363A1, “OPTIMIZED SHORTENED PEPTIDE THAT BINDS TO ACETYLCHOLINE RECEPTOR, AND USE THEREOF” (SKINMED CO., LTD., priority 2021, published 2025)

Target: acetylcholine receptor (Homo sapiens, UniProt P02708)
Assay: SPR binding affinity (RU) of optimized 5mer/6mer/7mer peptides, Examples 6-7
Details: SPR, peptides tested at 10 μM
Outline: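 Peptides were tested at 10 μM by surface plasmon resonance against the receptor, with binding reported as response units. Library sequences were built from frequent (top) or infrequent (bottom) amino acid combinations in 5mer, 6mer-1 and 6mer-2 series.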

[1] = 6mer-1 Top sequence (top combinations)

acetylcholine receptor, sequence (P02708 21-457): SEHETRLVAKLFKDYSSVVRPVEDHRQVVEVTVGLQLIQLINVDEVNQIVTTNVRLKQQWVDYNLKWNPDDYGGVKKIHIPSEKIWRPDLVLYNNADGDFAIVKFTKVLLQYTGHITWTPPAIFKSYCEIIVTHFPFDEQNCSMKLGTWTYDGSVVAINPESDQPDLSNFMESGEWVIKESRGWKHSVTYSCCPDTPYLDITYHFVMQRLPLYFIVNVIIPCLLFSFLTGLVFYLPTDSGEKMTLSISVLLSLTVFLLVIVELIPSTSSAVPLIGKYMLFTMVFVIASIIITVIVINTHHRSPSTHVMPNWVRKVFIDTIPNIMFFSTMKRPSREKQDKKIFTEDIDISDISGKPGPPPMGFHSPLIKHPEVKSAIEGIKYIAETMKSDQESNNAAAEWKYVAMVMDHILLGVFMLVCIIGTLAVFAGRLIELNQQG

Substance	Binding affinity [1] [Ru]	Binding affinity (6mer-1 Top sequence) [Ru]
6mer-1-194 (RKWQRR)	144	
6mer-1-195 (KRGISR)	122	
6mer-1-196 (RKWRRK)	142	
6mer-1-197 (RRSIRR)	139	
6mer-1-198 (KRLFCR)	148	
6mer-1-199 (KKQVQK)	151	
6mer-1-200 (RKLYQR)	142	
6mer-1-201 (RRRIQR)	151	
6mer-1-202 (RRQLTK)	154	
6mer-1-203 (RRQITR)		142
6mer-1-204 (KKRQRR)		154
6mer-1-205 (KRWRLR)		133
6mer-1-206 (RRLQTR)		121
6mer-1-207 (KKSQQR)		151
6mer-1-208 (KRSIQR)		122
6mer-1-209 (RKGYTR)		121
6mer-1-211 (KKQLLR)		123
6mer-1-212 (RRRICR)		148
6mer-1-213 (KRRVRK)		127
6mer-1-214 (RRSYCK)		139
6mer-1-215 (RKRYSR)		136
6mer-1-216 (RKSIQR)		148

Substance	Binding affinity [1] [Ru]	Binding affinity (6mer-1 Top sequence) [Ru]
6mer-1-217 (KRVLQR)		135
6mer-1-218 (KKQVTR)		126
6mer-1-219 (RRLFCR)		121
6mer-1-220 (KRQRQK)		148
6mer-1-221 (KKWFQR)		148
6mer-1-222 (RRRVRR)		145
6mer-1-223 (KKRRRK)		133
6mer-1-224 (KRGFLR)		142
6mer-1-226 (RRWITR)		128
6mer-1-227 (KRLVQK)		139
6mer-1-228 (KRVIYK)		139
6mer-1-229 (RRRLLR)		153
6mer-1-230 (RKGYCK)		128
6mer-1-231 (KRQRTK)		136
6mer-1-232 (RRRICK)		146
6mer-1-233 (KKWQSR)		128
6mer-1-234 (RRGISR)		142
6mer-1-235 (KKRYCR)		148
6mer-1-236 (RKLISR)		151
6mer-1-237 (RKSRYK)		137
6mer-1-238 (KKGQQK)		154
6mer-1-239 (RKVLCR)		136

Substance	Binding affinity [1] [Ru]	Binding affinity (6mer-1 Top sequence) [Ru]
6mer-1-240 (RRSRRR)		148
6mer-1-241 (RRLYYK)		148
6mer-1-242 (KRQYLK)		148
6mer-1-243 (KKWYLR)		136
6mer-1-244 (RRRVQK)		144
6mer-1-245 (RRGFRR)		142
6mer-1-246 (RRLVSR)		122
6mer-1-247 (KKVRQK)		122
6mer-1-248 (RRLIYK)		151
6mer-1-249 (RKGVSR)		142
6mer-1-250 (RRVICR)		142
6mer-1-251 (RKVQSK)		133
6mer-1-252 (RRWIRR)		131
6mer-1-253 (RRVQLK)		145
6mer-1-254 (RKSLSK)		137
6mer-1-255 (KKGFQK)		139
6mer-1-256 (KRVRTK)		125
6mer-1-257 (RKWVTR)		124
6mer-1-258 (KKLQYK)		137
6mer-1-259 (KRRYRK)		141
6mer-1-260 (RKQRTK)		141
6mer-1-261 (KRWVTR)		121

Substance	Binding affinity [1] [Ru]	Binding affinity (6mer-1 Top sequence) [Ru]
6mer-1-262 (RKQLQR)		139
6mer-1-263 (RKSYTK)		146
6mer-1-264 (RRQYQR)		128
6mer-1-265 (RKSVCR)		145
6mer-1-266 (KKGRLK)		144
6mer-1-267 (KRRLLR)		139
6mer-1-268 (KRRQSK)		144
6mer-1-269 (RKRRQR)		142
6mer-1-270 (KRGLRR)		149
6mer-1-271 (RRQVSK)		122
6mer-1-272 (KKQVSR)		139
6mer-1-273 (KKQVSK)		137
6mer-1-275 (RKRVLK)		123
6mer-1-276 (RRVICK)		128
6mer-1-277 (KKGLCR)		141
6mer-1-278 (KRQQTR)		142
6mer-1-279 (RRLRYR)		145
6mer-1-280 (RKLQCK)		149
6mer-1-281 (KRLLCR)		154
6mer-1-282 (RRRRYR)		121
6mer-1-283 (KKWVQK)		133
6mer-1-284 (KRSRQK)		145

Substance	Binding affinity [1] [Ru]	Binding affinity (6mer-1 Top sequence) [Ru]
6mer-1-285 (KRWVQR)		122
6mer-1-286 (RKLISK)		139
6mer-1-287 (RKWLTR)		136
6mer-1-288 (KKVQQR)		148
6mer-1-289 (RKRYYR)		153
6mer-1-290 (RKQLTK)		146
6mer-1-291 (KKQIRK)		142
6mer-1-292 (RKWQTK)		122
6mer-1-293 (RKRVCK)		154
6mer-1-294 (KKLYRR)		123
6mer-1-295 (KRQRCR)		148
6mer-1-296 (RKSIRR)		121
6mer-1-297 (RRGFSK)		139
6mer-1-298 (KKLYCK)		147
6mer-1-299 (KRWLSK)		139
6mer-1-300 (RRWQQK)		148
6mer-1-301 (RRSILR)		154
6mer-1-302 (RRGQSR)		151
6mer-1-303 (RKQYCK)		123
6mer-1-304 (RKLYSR)		121
6mer-1-305 (RKWISR)		153
6mer-1-306 (KKLFYR)		135

Substance	Binding affinity [1] [Ru]	Binding affinity (6mer-1 Top sequence) [Ru]
6mer-1-307 (KRWYRR)		153
6mer-1-308 (KRRITR)		135
6mer-1-309 (KKGICK)		153
6mer-1-310 (RKRQLK)		127
6mer-1-311 (RRGYQK)		127
6mer-1-312 (KKSRQK)		151
6mer-1-313 (RRWFCK)		148
6mer-1-314 (RRRILR)		141
6mer-1-315 (RKQQTK)		128
6mer-1-316 (RKQIRK)		145
6mer-1-317 (KRSFRR)		148
6mer-1-318 (KKSRRK)		145
6mer-1-319 (KRWVQK)		123
6mer-1-320 (KRVQYR)		121
6mer-1-321 (RKQVRR)		154
6mer-1-322 (KRGVQR)		146
6mer-1-323 (RRWLYR)		149
6mer-1-324 (RRLQRR)		128
6mer-1-325 (RRQIQR)		142
6mer-1-326 (RKWIYK)		136
6mer-1-327 (KRGITR)		139
